Measured values reported in US20260167720A1 (Amgen, published 2026).

B1: MSLN-CDH3 T-cell engager molecule 2 (heteroFc multichain) (bispecific antibody)
chain 1: QVQLVQSGAEVKKPGASVKVSCKASGYTFTNYWMNWVRQAPGQCLEWMGNIAYGVAGTNYNQKFQGRVTMTVDTSSSTAYMELSRLRSDDTAVYYCATRYFYVMDYWGQGTLVTVSSGGGGQGGGGQGGGGQEIQMTQSPSSLSASVGDRVTITCRASQDISNYLNWYQQKPGKVPKLLIYYTSRLHSGVPSRFSGSGSGTDFTLTISSLQPEDVATYYCVQYAQFPLTFGCGTKVEIKSGGGGQEVQLVESGGGLVQPGGSLKLSCAASGFTFNKYAMNWVRQAPGKGMEWVARIRSKYNNYATYYADAVKDRFTISRDDSKNTLYLQMNNLKTEDTAVYYCVRAGNFGSSYISYFAYWGQGTLVTVSSGGGGQGGGGQGGGGQQTVVTQEPSLTVSPGGTVTITCGSSTGAVTSGNYPNWIQKKPGQAPRGLIGGTKFLAPGTPARFSGSLEGGKAALTLSGVQPEDEAEYYCVLYYSNRWVFGSGTKLTVLGGGGCPPCPAPELLGGPSVFLFPPKPKDTLMISRTPEVTCVVVDVSHEDPEVKFNWYVDGVEVHNAKTKPCEEQYGSTYRCVSVLTVLHQDWLNGKEYKCKVSNKALPAPIEKTISKAKGQPREPQVYTLPPSREEMTKNQVSLTCLVKGFYPSDIAVEWESNGQPENNYDTTPPVLDSDGSFFLYSDLTVDKSRWQQGNVFSCSVMHEALHNHYTQDSLSLSPGK
chain 2: CPPCPAPELLGGPSVFLFPPKPKDTLMISRTPEVTCVVVDVSHEDPEVKFNWYVDGVEVHNAKTKPCEEQYGSTYRCVSVLTVLHQDWLNGKEYKCKVSNKALPAPIEKTISKAKGQPREPQVYTLPPSRKEMTKNQVSLTCLVKGFYPSDIAVEWESNGQPENNYKTTPPVLKSDGSFFLYSKLTVDKSRWQQGNVFSCSVMHEALHNHYTQKSLSLSPGKGGGGQVQLQESGPGLVKPSETLSLTCTVSGGSISSSSYFWGWIRQPPGKCLEWIGNIYYSGSSNYNPSLKSRVTISVDTSKNQFSLKLSSVTAADTAVYYCARLPRGDRDAFDIWGQGTMVTVSSGGGGQGGGGQGGGGQEIVMTQSPSSLSASVGDRVTITCRASQGISNYLAWYQQKPGKVPKLLIYAASTLQSGVPSRFSGSGSGTDFTLTISSLQPEDFATYYCQQSYSTPFTFGCGTKVEIKSGGGGQEVQLVESGGGLVQPGGSLKLSCAASGFTFNKYAMNWVRQAPGKGMEWVARIRSKYNNYATYYADAVKDRFTISRDDSKNTLYLQMNNLKTEDTAVYYCVRAGNFGSSYISYFAYWGQGTLVTVSSGGGGQGGGGQGGGGQQTVVTQEPSLTVSPGGTVTITCGSSTGAVTSGNYPNWIQKKPGQAPRGLIGGTKFLAPGTPARFSGSLEGGKAALTLSGVQPEDEAEYYCVLYYSNRWVFGSGTKLTVL
B2: MSLN-CDH3 T-cell engager molecule 3 (example to FIG. 2A) (bispecific antibody)
chain 1: not shown
chain 2: EVQLVESGGGLVQPGGSLKLSCAASGFTFNKYAMNWVRQAPGKGMEWVARIRSKYNNYATYYADAVKDRFTISRDDSKNTLYLQMNNLKTEDTAVYYCVRAGNFGSSYISYFAYWGQGTLVTVSSGGGGQGGGGQGGGGQQTVVTQEPSLTVSPGGTVTITCGSSTGAVTSGNYPNWIQKKPGQAPRGLIGGTKFLAPGTPARFSGSLEGGKAALTLSGVQPEDEAEYYCVLYYSNRWVFGSGTKLTVLGGGGQGGGGQGGGGQDKTHTCPPCPAPELLGGPSVFLFPPKPKDTLMISRTPEVTCVVVDVSHEDPEVKFNWYVDGVEVHNAKTKPCEEQYGSTYRCVSVLTVLHQDWLNGKEYKCKVSNKALPAPIEKTISKAKGQPREPQVYTLPPSRKEMTKNQVSLTCLVKGFYPSDIAVEWESNGQPENNYKTTPPVLKSDGSFFLYSKLTVDKSRWQQGNVFSCSVMHEALHNHYTQKSLSLSPGKGGGGQGGGGQGGGGQEVQLVESGGGLVQPGGSLKLSCAASGFTFNKYAMNWVRQAPGKGMEWVARIRSKYNNYATYYADAVKDRFTISRDDSKNTLYLQMNNLKTEDTAVYYCVRAGNFGSSYISYFAYWGQGTLVTVSSGGGGQGGGGQGGGGQQTVVTQEPSLTVSPGGTVTITCGSSTGAVTSGNYPNWIQKKPGQAPRGLIGGTKFLAPGTPARFSGSLEGGKAALTLSGVQPEDEAEYYCVLYYSNRWVFGSGTKLTVL
B3: MSLN-CDH3 T-cell engager molecule 1 (scFc single chain) (bispecific antibody)
chain: QVQLVQSGAEVKKPGASVKVSCKASGYTFTNYWMNWVRQAPGQCLEWMGNIAYGVAGTNYNQKFQGRVTMTVDTSSSTAYMELSRLRSDDTAVYYCATRYFYVMDYWGQGTLVTVSSGGGGQGGGGQGGGGQEIQMTQSPSSLSASVGDRVTITCRASQDISNYLNWYQQKPGKVPKLLIYYTSRLHSGVPSRFSGSGSGTDFTLTISSLQPEDVATYYCVQYAQFPLTFGCGTKVEIKSGGGGQEVQLVESGGGLVQPGGSLKLSCAASGFTFNKYAMNWVRQAPGKGMEWVARIRSKYNNYATYYADAVKDRFTISRDDSKNTLYLQMNNLKTEDTAVYYCVRAGNFGSSYISYFAYWGQGTLVTVSSGGGGQGGGGQGGGGQQTVVTQEPSLTVSPGGTVTITCGSSTGAVTSGNYPNWIQKKPGQAPRGLIGGTKFLAPGTPARFSGSLEGGKAALTLSGVQPEDEAEYYCVLYYSNRWVFGSGTKLTVLGGGGCPPCPAPELLGGPSVFLFPPKPKDTLMISRTPEVTCVVVDVSHEEPEVKFNWYVDGVEVHNAKTKPCEEQYGSTYRCVSVLTVLHQDWLNGKEYKCKVSNKALPAPIEKTISKAKGQPREPQVYTLPPSREEMTKNQVSLTCLVKGFYPSDIAVEWESNGQPENNYKTTPPVLDSDGSFFLYSKLTVDKSRWQQGNVFSCSVMHEALHNHYTQKSLSLSPGKGGGGQGGGGQGGGGQGGGGQGGGGQGGGGQCPPCPAPELLGGPSVFLFPPKPKDTLMISRTPEVTCVVVDVSHEEPEVKFNWYVDGVEVHNAKTKPCEEQYGSTYRCVSVLTVLHQDWLNGKEYKCKVSNKALPAPIEKTISKAKGQPREPQVYTLPPSREEMTKNQVSLTCLVKGFYPSDIAVEWESNGQPENNYKTTPPVLDSDGSFFLYSKLTVDKSRWQQGNVFSCSVMHEALHNHYTQKSLSLSPGKGGGGQVQLQESGPGLVKPSETLSLTCTVSGGSISSSSYFWGWIRQPPGKCLEWIGNIYYSGSSNYNPSLKSRVTISVDTSKNQFSLKLSSVTAADTAVYYCARLPRGDRDAFDIWGQGTMVTVSSGGGGQGGGGQGGGGQEIVMTQSPSSLSASVGDRVTITCRASQGISNYLAWYQQKPGKVPKLLIYAASTLQSGVPSRFSGSGSGTDFTLTISSLQPEDFATYYCQQSYSTPFTFGCGTKVEIKSGGGGQEVQLVESGGGLVQPGGSLKLSCAASGFTFNKYAMNWVRQAPGKGMEWVARIRSKYNNYATYYADAVKDRFTISRDDSKNTLYLQMNNLKTEDTAVYYCVRAGNFGSSYISYFAYWGQGTLVTVSSGGGGQGGGGQGGGGQQTVVTQEPSLTVSPGGTVTITCGSSTGAVTSGNYPNWIQKKPGQAPRGLIGGTKFLAPGTPARFSGSLEGGKAALTLSGVQPEDEAEYYCVLYYSNRWVFGSGTKLTVL

What follows are binders tested against T1, MSLN (Mesothelin) on HCT116 or GSU cells (UniProt Q13421 37-598, limits assumed) (assay: cell-based or functional assay).

Row | EC50 HCT116 KO CDH3 [pM]; TDCC, CDH3 knocked out, MSLN left [pM] | EC50 HCT116 WT [pM]; TDCC, cells double positive for CDH3 and MSLN [pM] | Binder
1 | 3.48 | 0.013 | B1
2 | 3.19 | 0.005 | B2
3 | 1.76 | 0.003 | B3

What follows are binders tested against T2, CDH3 (Cadherin-3, P-Cadherin) on HCT116 or GSU cells (UniProt P22223 108-829, limits assumed) (assay: cell-based or functional assay).

Row | EC50 HCT116 KO MSLN [pM]; TDCC, MSLN knocked out, CDH3 left [pM] | EC50 HCT116 WT [pM]; TDCC, cells double positive for CDH3 and MSLN [pM] | Binder
4 | 1.77 | 0.013 | B1
5 | 0.38 | 0.005 | B2
6 | 1.08 | 0.003 | B3

Target: T1, MSLN (Mesothelin) on HCT116 or GSU cells
Test: cell-based or functional assay
Remark: another data set of the same source

Row | EC50 GSU KO CDH3 [pM]; TDCC, CDH3 knocked out, MSLN left [pM] | EC50 GSU WT [pM]; TDCC, cells double positive for CDH3 and MSLN [pM] | Binder
7 | 2.5 | 0.039 | B1
8 | 7.5 | 0.073 | B2
9 | 0.47 | 0.013 | B3

Target: T2, CDH3 (Cadherin-3, P-Cadherin) on HCT116 …
Test: cell-based or functional assay
Remark: another data set of the same source

Row | EC50 GSU KO MSLN [pM]; TDCC, MSLN knocked out, CDH3 left [pM] | EC50 GSU WT [pM]; TDCC, cells double positive for CDH3 and MSLN [pM] | Binder
10 | 349 | 0.039 | B1
11 | 55.3 | 0.073 | B2
12 | 103 | 0.013 | B3
